B1: Ab 17 (scFv, V domains shown)
VH: QVQLVQSGGGVVQPGRSLRLSCAASGFTFDDYAMHWVRQVPGKGLEWVSGIDWNSGVIGYADSVKGRFTISRDNVKNSLYLQMNSLRTEDSALYYCAKDIGPGGSGSYYAFDIWGQGTTVTVSS
VL: QSALTQPASVSGSPGQSITISCTGTSSDVGGSKYVSWYQQHPGKAPKVMIYDVTKRPSGVPDRFSGSKSGNTASLTISGLQAEDEADYYCAAWDDSLNGVVFGGGTKLTVL
B2: Ab 16 (scFv, V domains shown)
VH: QVQLVQSGGGVVQPGRSLRLSCAASGFTFSNYGMHWVRQAPGKGLEWVALIWERGSKKDYADSVKGRFTVSRDNSKNTLYLQMNSLRPEDTAVYFCAREGISMTGAEYFQHWGQGTLVTVSS
VL: QSVLTQPPSVSGSPGQRVTMSCTGSSSNIGAGYDVHWYQQVPGAAPRLLIYGTNNRPSGVPDRFSGSKSGTSASLTITGLQAEDEADYYCQSYDNSLTDPYVFGTGTKVTVL
B3: Ab 18 (scFv, V domains shown)
VH: EVQLVQSGGGVVQPGRSLRVSCAASGFSFSRYGMHWVRQAPGKGLEWVAFIRHDGSKKYYADSVEGRFTISRDNSRNTVSLEMNSLRGEDTAVYYCAKDGRLEAALDDWGQGTLVTVSS
VL: NFMLTQPHSMSGSAGKTVTVSCIRSSGSIANNFVQWYQQRPGSAPTTVIYEDNQRPSGVPDRFSGSIDSSSNSASLTISGLKTEDEADYYCQSYDSSNLVFGGGTRLTVL
B4: Ab 21 (scFv, V domains shown)
VH: QVQLVQSGGGLVQPGGSLRLSCATSGFTFDDYAMHWVRQAPGKGLEWVSGISWNSGSIGYVDSVKGRFTISRDNRNNKVYLQMNNLRAEDTAVYYCARDWWGSIDHWGLGTLVTVSS
VL: QSALTQPRSVSGSPGQSVTISCTGTSSDVGGYDYVSWYQQHPGKAPKLIIYDVSKRPSGVPDRFSGSKSGNTASLTVSGLQAEDEADYYCSSYTSSSPVVFGGGTKLTVL
B5: Ab 13 (scFv, V domains shown)
VH: QVTLKESGPKLVKPTQTLTLTCTFSGFSLSTSGVGVGWIRQPPGKALEWLALIYWDDDKRYSPSLKSRLTIAKDTSKYQVVLTMTNMDPVDTATYYCARISGSGYFYPFDIWGQGTMVTVSA
VL: NFMLTQPHSVSESPGKTVTISCTRSSGSIASNYVQWYQQRPGSAPTTVIYEDNQRPSGVPDRFSGSIDSSSNSASLTISGLKTEDEADYYCQSYDSSNLWVFGGGTKLTVL
B6: Ab 20 (scFv, V domains shown)
VH: QVQLVQSGGGSVKPGGSLRLSCAASGYRLSDYYMHWVRQAPGKGLEWVANIKQDGSEKYYVDSVKGRFTISRDNAKNSLYLQMNSLRAEDTAVYYCARVRGWSRGYFDYWGQGTLVTVSS
VL: B5 VL with R24G, T77L, L99H
B7: Ab 36 (scFv, V domains shown)
VH: QVQLQQSGPGLVKPSQTLSLTCAIFGDSVTSNSAAWNWIRQSPSRGLEWLGRTYYSSKWYNDYAVSVKSRVTINADTSKNQLSLQLNSVTPEDTAVYYCARGWLRLSFDPWGQGTLVTVSS
VL: NFMLTQPHSVSESPGKTVTISCTGSSGSIASNYVQWLQQRLGSAPTTVIYEDNQRPSGVPDRFSGSIDSSSNSASLTISGLKTEDEADYYCQSYDPNNHGVVFGGGTKLTVL
B8: Ab 32 (scFv, V domains shown)
VH: QVQLVQSGAEVKKPGESLKISCKGSGYSFTSYWIGWVRQMPGKGLEWMGIIYPGDSDTRYSPSFQGQVTISADKSISTAYLQWSSLKASDTAMYYCARGWQWHDYWGQGTLVTVSS
VL: QTVVTQEPAVSVALGQTVRITCQGDSLRSYYASWYQQKPGQAPVLVVYDKDKRPSGIPDRFSGSTSGNTASLTITGAQAEDEADYYCNSRDRSDNHVVFGGGTKLTVL
B9: Ab 29 (scFv, V domains shown)
VH: QVQLQQSGPGLVKPSQTLSLTCAISGDSVSSYSDAWNWIRQSPSRGLEWLGRTYYRSKWYNDYAVSVKSRITINPDTSKNQFSLQLSSVTPEDTAVYYCAREIVATTPFRNYYYGMDVWGQGTTVTVSS
VL: B5 VL with K16N, S25T, A44S, Y50F, E51Q, N53K, Q54L, N98S
B10: Ab 34 (scFv, V domains shown)
VH: QVQLVQSGVEVKKPGESLKISCKGSGYSFTSYWIGWVRQMPGKGLEWMGIIYPGDSDTRYSPSFQGQVTISADKSISTAYLQWSSLKASDTAMYYCARTTYSYGSFDYWGQGTLVTVSS
VL: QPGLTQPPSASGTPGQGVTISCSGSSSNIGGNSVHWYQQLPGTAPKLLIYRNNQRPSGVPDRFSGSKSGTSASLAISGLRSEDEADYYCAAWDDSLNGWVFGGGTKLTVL
B11: Ab 39 (scFv, V domains shown)
VH: QVTLKESGPTLVKPTQTLTLTCTLSGVSLDTIGMRVSWIRQPPGKALEWLARIDWDDDKFYSTALKTRLTISKDTSKNQVVFTMTSMDPVDTATYYCARSGLLYDLDVWGRGTLVTVSS
VL: QSVVTQPPSVSGAPGQRVTISCTGSDSDIGANFVQWYQQLPGTAPKLLIWRNTNRPSGVPDRFSASKSGTSASLAITGLQAEDEADYFCQSYDSSLSAYVFGGGTKVTVL
B12: Ab 31 (scFv, V domains shown)
VH: QVQLVQSGAEVKKPGSSVKVSCKASGGTFSSYTISWVRQAPGQGLEWMGGIIPILGTPNYAQKFQDRVAITADKSTSTAYMELSSLRSEDTAVYYCAVGSGWYSGFDYWGQGTLVTVSS
VL: B5 VL with R24G, N53S, Y94F, D95H, S96N, L99P, W100V, V101I
B13: Ab 37 (scFv, V domains shown)
VH: QVQLVQSGAEVKKPGASVKVSCKASGYTFTSYGISWVRQAPGQGLEWMGWISTYNGNTNYAQKLQGRVTMTTDTSTSTAYMEVRSLRSDDTAVYYCARDVFGHFDYWGQGTLVTVSS
VL: NFMLTQPHSVSESPGKTVLISCTRSSGNIATNYVQWYQQRPGSAPTTVIYEDNQRPSGVPDRFSGSIDSSSNSASLTISGLKTEDEADYYCKSYDDGNHVFGGGTKLTVL
B14: Ab 8 (scFv, V domains shown)
VH: QVQLVQSGAEVKKPGSSVKVSCKASGGTFSSYAISWLRQAPGQGLEWMGWINPNSGGTNYAQKFQGRVTMTRDTSISTAYMELSRLRSDDTAVYYCARGSGGYYLGWGQGTLVTVSS
VL: QPGLTQPPSVSKGLRQTATLTCTGNSNNVGNQGAAWLQQHQGHPPKLLSYMNNNRPPGISERFSASRSGNTASLTITGLQPEDEADYYCSAWDSSLSRWVFGGGTKLSVL
B15: Ab 38 (scFv, V domains shown)
VH: QVTLKESGPTLVKPTQTLTLTCTFSGFSLTTSGVSVGWIRQPPGKALEWLALIHWDDDKRYSPSLRSRLTITRDTSKNQVVLTVTDMDPADTGTYYCASFIMTVYAEYFEDWGQGTLVTVSS
VL: EIVLTQSPATLSVSPGERATLSCRASQSVSSNLAWYQQKPGQAPRLLMYDVSTRATGIPARFSGSGSGTEFSLTISSLQSEDFAVYYCQQRGAWPLTFGGGTKVEIK

Substitutions are numbered along the chain they refer to.

For orientation: Kd means the free concentration of one partner at which half of the binding sites on the other are occupied at equilibrium, for simple one-to-one binding. Lower therefore signals tighter binding.

The target in one assay is S1-biotin(ACRO). Briefly: BLI. (In general: Biolayer interferometry detects binding as a change in optical thickness at a sensor tip.)
On to B1, for which binding was characterised by a dissociation constant (Kd) of 0.716 nM. This counts as sub-nanomolar. In turn, B2 had a Kd of 2.18 nM. This Kd lies about 3-fold higher than the previous one. B3 showed a Kd of 0.121 nM.

The molecule B4 yielded a Kd of 1.28 nM. Same read-out and setting: then B5, with 1.14 nM; and B6, with 5.01 nM.

A further assay deals with S1. Briefly: BLI.
As to B7, the equilibrium dissociation constant (Kd) came out at 0.0306 nM. This lies in the picomolar range. Still for that read-out and setting: then B8, with 0.168 nM; and B9, with below 0.001 nM. Regarding B1, the Kd came to 0.716 nM. With B10, the equilibrium dissociation constant (Kd) is 0.184 nM. On the same count and under the same terms, then B2, with 2.18 nM. In the case of B3, the Kd is 0.121 nM.

As to B4, binding was characterised by a dissociation constant (Kd) of 1.28 nM. The same measure, in the same setting: next, B11: below 0.001 nM; B12: 2040 nM; B5: 1.14 nM.

For B6, the Kd is 5.01 nM.

Consider B13, for which the Kd is 0.907 nM. In turn, B14 gave a Kd of 325 nM. B15 gave a dissociation constant Kd of 0.22 nM.
